Data from PMC11661440, “TNIK: A redox sensor in endothelial cell permeability” (Science Advances, 2024).

Molecular target: the molecule itself
Experiment: cross-linking; disulfide-linked species of purified GST-TNIK KD; oxidised in vitro with 50 uM H2O2 at 30°C for 15 min or without H2O2 (air oxidation); nonreducing (-DTT) or reducing (+DTT) SDS-PAGE and Western blotting

B1: Recombinant GST-tagged TNIK kinase domain (human amino acids 1 to 367) (domain or fragment, UniProt Q9UKE5 1-367, looked up)
chain: MASDSPARSLDEIDLSALRDPAGIFELVELVGNGTYGQVYKGRHVKTGQLAAIKVMDVTGDEEEEIKQEINMLKKYSHHRNIATYYGAFIKKNPPGMDDQLWLVMEFCGAGSVTDLIKNTKGNTLKEEWIAYICREILRGLSHLHQHKVIHRDIKGQNVLLTENAEVKLVDFGVSAQLDRTVGRRNTFIGTPYWMAPEVIACDENPDATYDFKSDLWSLGITAIEMAEGAPPLCDMHPMRALFLIPRNPAPRLKSKKWSKKFQSFIESCLVKNHSQRPATEQLMKHPFIRDQPNERQVRIQLKDHIDRTKKKRGEKDETEYEYSGSEEEEEENDSGEPSSILNLPGESTLRRDFLRLQLANKERSEA
notes: Oxidised in vitro with 50 uM H2O2 (30°C, 15 min) or left without H2O2; The disulfide-linked species were seen on nonreducing SDS-PAGE; GST is kept on the protein; also called GST-TNIK KD; TNIK KD; source: bought: Thermo Fisher Scientific, recombinant purified
binding result: binds
